# Data reported in US8106168B2, “Metalloproteinase binding proteins” (Dyax Corp., priority 2005, dated 2012).
# Columns and labels:
# [1] = target: T1, MMP-14 (Homo sapiens, UniProt P50281); experiment: Selection and phage ELISA screening of anti-MMP-14 Fabs; assay type: binding; settings: Fab from FAB310 phage display library
# Summary of the method: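 The FAB310 phage library was panned on biotinylated MMP-14, alone or complexed with bead-bound TIMP-2, at 500 nM and then 100 nM over three rounds. Phage was eluted with 2.5 μM TIMP-2, then 100 mM TEA. For ELISA, 95 clones per round were screened against 1 μg/ml biotinylated MMP-14 captured on streptavidin in TRIS/5 mM CaCl2, pH 7.5.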
# [2] = target: T1, MMP-14; experiment: IC50 for MMP-14 inhibition by Fabs and IgGs; assay type: biochemical; settings: Fab
# Method: MMP-14 binding proteins can be characterized in assays that measure their modulatory activity toward MMP-14 or fragments thereof in vitro or in vivo. For example, MMP-14 can be combined with a substrate such as Mca-Pro-Leu-Ala-Cys(Mob)-Trp-Ala-Arg-Dap(Dnp)-NH2 under assay conditions permitting cleavage by MMP-14. The assay is performed in the absence of the MMP-14 binding protein, and in the presence of increasing concentrations of the MMP-14 binding protein. The concentration of binding protein at which 50% of the MMP-14 activity (e.g., binding to the substrate) is inhibited is the IC50 value (Inhibitory Concentration 50%) or EC50 (Effective Concentration 50%) value for that binding protein.
# [3] = test system: Tumor Cells Expressing MMP-14 (HT-1080, LNCaP, MDA-MB-231, PC3); experiment: Binding of IgGs to tumor cells, immunocytochemistry and flow cytometry; assay type: cell-based, human; settings: ICC versus flow cytometry
# Method: The ability of twelve biotinylated-MMP-14 binding IgGs to bind to tumor cells expressing MMP-14 was evaluated using both immunocytochemistry (ICC) and flow cytometry. The cell lines tested were HT-1080 (a human fibrosarcoma cell line), LNCaP (human, prostate, carcinoma), MDA-MB-231 (human, breast, adenocarcinoma), or PC3 (Human prostatic cancer cells) cells. MMP-14 is expressed on HT-1080 cells (Cancer Res. (2005) 65(23):10959-69.). MMP-14 is expressed on PC-3 cells (Oncol Rep. (2006) 15(1):199-206). LNCaP express MMP-14 (Endocrinology (2003) 144(5):1656-1663) at a relatively low level. […] MMP-14 is expressed by MDA-MB-231 cells (Int J Cancer. (2005) 114(4):544-554.).
# Cells (2×10^5) were cultivated on cell culture slides in complete medium. At confluency, cells were washed with PBS and fixed with 4% paraformaldehyde for 30 minutes at room temperature. Endogenous peroxidases were blocked with 3% hydrogen peroxide for 20 minutes. Nonspecific binding sites were blocked by incubation with 10% heat inactivated human serum 10% normal rabbit serum for 30 minutes at room temperature. Cells were then incubated with biotinylated or non-biotinylated MMP-14 binding proteins at 10 μg/ml for 2 hours at room temperature. […] Binding was detected with the substrate AEC+(25 minutes at room temperature in the dark). […]
# [4] = target: T2, MMP-16 (Homo sapiens, UniProt P51512); experiment: Cross-reactivity of Fabs with MMP-16 (Example 9); assay type: biochemical; design: key: X: Do not inhibit MMP-16 or MMP-24 at [I] = 100 nM level; Y: partially inhibit at [I] = 100 nM level; settings: Fab, 100 nM final inhibitor concentration, 5 nM MMP-16
# T2 sequence (P51512 120-607): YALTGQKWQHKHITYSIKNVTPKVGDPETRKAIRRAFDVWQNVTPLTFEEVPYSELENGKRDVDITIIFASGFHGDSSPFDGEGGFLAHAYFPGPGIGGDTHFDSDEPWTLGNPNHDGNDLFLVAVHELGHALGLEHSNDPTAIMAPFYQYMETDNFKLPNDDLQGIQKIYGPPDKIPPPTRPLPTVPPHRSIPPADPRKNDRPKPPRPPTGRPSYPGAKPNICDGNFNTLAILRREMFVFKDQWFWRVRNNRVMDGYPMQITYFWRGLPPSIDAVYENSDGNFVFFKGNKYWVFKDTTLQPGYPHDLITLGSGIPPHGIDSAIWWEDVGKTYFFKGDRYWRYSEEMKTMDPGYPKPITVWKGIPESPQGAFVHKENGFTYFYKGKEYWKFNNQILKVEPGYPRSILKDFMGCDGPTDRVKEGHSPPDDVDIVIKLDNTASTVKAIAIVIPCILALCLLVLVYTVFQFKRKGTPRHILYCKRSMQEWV
# Method: (§1) For the studies summarized in Table 15, 1 μM of anti-MMP-14 Fab/IgG (100 nM final inhibitor concentration) were incubated with 5 nM of MMP-16 or 5 nM of MMP-24 for 30 minutes at 30° C., 10 μM of substrate was added, and the MMP-16 activity was measured.
# [5] = target: T2, MMP-16; experiment: Cross-reactivity of Fabs and IgGs with MMP-16 (Example 8); assay type: biochemical; design: key to MMP-16 (cross-reactivity, class symbol): X: Does not inhibit MMP-16 at [I] = 100 nM level; settings: 5 nM MMP16, 30 minutes at 30° C., 10 μM substrate
# Method: For the studies summarized in Tables 13 and 14, 100 nM anti-MMP-14 Fab/IgG were incubated with 5 nM MMP16 for 30 minutes at 30° C., 10 μM of substrate was added, and the MMP-16 activity was measured.
# [6] = target: T3, MMP-24 (Homo sapiens, UniProt Q9Y5R2); experiment: Cross-reactivity of Fabs with MMP-24 (Example 9); assay type: biochemical; design: key to MMP-24 (cross-reactivity, class symbol): X: Do not inhibit MMP-16 or MMP-24 at [I] = 100 nM level; Y: partially inhibit at [I] = 100 nM level; settings: Fab, 100 nM final inhibitor concentration; 5 nM MMP-24
# T3 sequence (Q9Y5R2 156-645): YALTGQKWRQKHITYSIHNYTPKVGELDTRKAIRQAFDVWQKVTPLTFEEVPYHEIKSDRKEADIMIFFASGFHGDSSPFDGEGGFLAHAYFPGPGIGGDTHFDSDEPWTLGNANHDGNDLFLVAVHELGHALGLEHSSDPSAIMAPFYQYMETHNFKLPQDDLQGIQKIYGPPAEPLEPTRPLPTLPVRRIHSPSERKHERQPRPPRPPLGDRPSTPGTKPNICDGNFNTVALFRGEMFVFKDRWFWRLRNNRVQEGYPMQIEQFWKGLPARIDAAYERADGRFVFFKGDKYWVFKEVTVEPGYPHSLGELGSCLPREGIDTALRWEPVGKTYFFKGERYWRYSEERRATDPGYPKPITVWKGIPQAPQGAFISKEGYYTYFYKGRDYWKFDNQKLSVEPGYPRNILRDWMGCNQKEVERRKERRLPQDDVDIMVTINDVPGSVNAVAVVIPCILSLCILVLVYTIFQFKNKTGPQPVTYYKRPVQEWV
# Method: as §1
# [7] = target: T3, MMP-24; experiment: Cross-reactivity of anti-MMP-14 IgGs, enzymatic activity: MMP-24; assay type: biochemical; settings: 1 μM anti-MMP-14 IgG
# Method: (§2) The cross-reactivity of exemplary anti-MMP-14 IgGs and Fabs with other human MMPs and TACE (TNF-alpha converting enzyme) was examined. MMP and TACE enzymatic activity was monitored in the absence and presence of 1 μM anti-MMP-14 IgG antibody. Inhibition (Y) of activity ranged from approximately 50-80% of the reaction rate observed in the absence of antibody. “X” indicates no inhibition was observed. Cross-reactivity was not determined for MMP-17 because protein activity could not be detected.
# (§3) For the studies summarized in Table 12, six anti-MMP-14 IgGs were selected for cross-reactivity testings: M0043-G02, M0040-A06, M0037-D01, M037-C09, M0038-F01, M0033-H07.
# [8] = test system: activation of pro-MMP-2 by MMP-14 in PMA-activated HT-1080 cells; experiment: Gelatin zymogram, pro-MMP-2 activation in HT-1080 cells; assay type: cell-based, human; settings: gelatin zymography of conditioned media after 3 days; antibodies 10 μg/ml, GM6001 10 μM
# Method: The ability of anti-MMP-14 IgGs to inhibit the activation of pro-MMP-2 by MMP-14 was examined by gelatin zymogram experiments performed with PMA-activated HT-1080 cells. M0033-H07 and M0038-F01 were tested for their ability to inhibit MMP-14 in this assay. HT1080 cells (well-known to express MMP-14 and MMP-2) were seeded at 5×10^5 cells/well at Day 0. […] HT-1080 cells cultured in the presence of 20 ng/ml of PMA were used as a positive control.
# After 3 days of incubation, conditioned media were collected and gelatinolytic activities were analyzed by gelatin zymography as described previously (Maquoi et al, J Biol Chem 2000; 275:11368-78). When HT-1080 cells are activated with a phorbol ester, pro-MMP-2 is activated into MMP-2 (lane 1).
# [9] = target: T2, MMP-16; experiment: Cross-reactivity of anti-MMP-14 IgGs, enzymatic activity: MMP-16; assay type: biochemical; settings: 1 μM anti-MMP-14 IgG
# Method: as §2, §3
Molecule,bind to human MMP-14 [1],bind to and inhibit human MMP-14 [2],"Staining, remark on method [3]","MMP-16 (cross-reactivity, class symbol) [4]","MMP-16 (cross-reactivity, class symbol) ([5]; Fab 100 nM)","MMP-16 (cross-reactivity, class symbol) ([5]; IgG 100 nM)","MMP-24 (cross-reactivity, class symbol) [6]",Cross reactivity: inhibition of MMP-24 activity [7],pro-MMP-2 activation by MMP-14 [8],pro-MMP-9 expression [8],Cross reactivity: inhibition of MMP-16 activity [9],MMP-24 inhibition [6]
"M0031-F01: human antibody (Fab, IgG) that binds and inhibits MMP-14; HC SEQ ID NO: 146, LC SEQ ID NO: 147 (antibody, V domains shown, Synthetically generated peptide) VH: EVQLLESGGGLVQPGGSLRLSCAASGFTFSTYEMHWVRQAPGKGLEWVSSIYSSGGWTGYADSVKGRFTISRDNSKNTLYLQMNSLRAEDTAVYYCARSQQYYDFSSRYYGMDVWGQGTTVTVSS VL: QSELTQPPSVSGTPGQRVTISCSGTSANIGRNAVHWYQQLPGTAPKLLIHSNNRRPSGVPDRFSGSKSGTSASLAISGLQSEDEADYYCAAWENSLNAFYVFGTGTKVTVL",bind to human MMP-14,bind to and inhibit human MMP-14,(only positive in ICC),,,,,,,,,
"M0033-H07: human antibody (Fab, IgG) that binds and inhibits MMP-14; HC SEQ ID NO: 148, LC SEQ ID NO: 149 (antibody, V domains shown, Synthetically generated peptide) VH: EVQLLESGGGLVQPGGSLRLSCAASGFTFSVYGMVWVRQAPGKGLEWVSVISSSGGSTWYADSVKGRFTISRDNSKNTLYLQMNSLRAEDTALYYCARPFSRRYGVFDYWGQGTLVTVSS VL: QDIQMTQSPSSLSASVGDRVTITCRASQGIRNFLAWYQQKPGKVPKLLVFGASALQSGVPSRFSGSGSGTDFTLTISGLQPEDVATYYCQKYNGVPLTFGGGTKVEIK",bind to human MMP-14,bind to and inhibit human MMP-14,,X,X,X,X,Y (Inhibition (Y) of activity ranged from approximately 50-80% of the reaction rate observed in the absence of antibody),partly inhibited,No stimulation,Y (Inhibition (Y) of activity ranged from approximately 50-80% of the reaction rate observed in the absence of antibody),
"M0037-C09: human antibody (Fab, IgG) that binds and inhibits MMP-14; HC SEQ ID NO: 150, LC SEQ ID NO: 151 (antibody, V domains shown, Synthetically generated peptide) VH: EVQLLESGGGLVQPGGSLRLSCAASGFTFSHYEMFWVRQAPGKGLEWVSSISPSGGQTHYADSVKGRFTISRDNSKNTLYLQMNSLRAEDTAVYYCATDRTYYDFWSGYGPLWYWGQGTLVTVSS VL: QDIQMTQSPLSLPVTLGESASVSCRSSQSLLHENGHNYLDWYLQKPGQSPQLLIYLGSNRASGVPDRFSGSGSGTDFTLKISRVEAEDVGVYYCMQSLKTPPTFGPGTKVEIK",bind to human MMP-14,bind to and inhibit human MMP-14,,X,X,X,,Y (Inhibition (Y) of activity ranged from approximately 50-80% of the reaction rate observed in the absence of antibody),,,Y (Inhibition (Y) of activity ranged from approximately 50-80% of the reaction rate observed in the absence of antibody),Y 72% inhibition
"M0037-D01: human antibody (Fab, IgG) that binds and inhibits MMP-14; HC SEQ ID NO: 152, LC SEQ ID NO: 153 (antibody, V domains shown, Synthetically generated peptide) VH: EVQLLESGGGLVQPGGSLRLSCAASGFTFSMYMMIWVRQAPGKGLEWVSSIYPSGGNTMYADSVKGRFTISRDNSKNTLYLQMNSLRAEDTAVYYCATGVLRYFDWDAGSGMDVWGQGTTVTVSSLC VL: QDIQMTQSPSSLSASVGDRVTITCRASQGIRNDLGWYQQKPGKAPKRLIYVASSLQSGVPSRFSGSGSGTEFTLTISSLQPEDFATYYCLQHNSYPWTFGQGTKVEIK",bind to human MMP-14,bind to and inhibit human MMP-14,,X,X,X,,Y (Inhibition (Y) of activity ranged from approximately 50-80% of the reaction rate observed in the absence of antibody),,,Y (Inhibition (Y) of activity ranged from approximately 50-80% of the reaction rate observed in the absence of antibody),Y 71% inhibition
